Test results: publication PMC4841774 (eLife, 2016)
One block for each molecule: values may come before it.

Experiments:
[1] = target: MTA1-A (residues 162–354) (human) (UniProt Q13330); assay: SEC-MALS; gel-filtrated co-expressed complexes at 1 mg/ml reapplied to Superdex S200; Optilab T-rEX and DAWN HELEOS detectors
[2] = target: MTA1-C (residues 162–715) (human) (UniProt Q13330); assay: affinity purification with mass spectrometry; Flag-tagged MTA1 fragments co-transfected with HDAC1 in HEK293F; complexes purified on FLAG resin; endogenous RBBP4/7 identified by peptide mass spectrometry; ratio by densitometry of the SDS-PAGE gel (ImageJ)
[3] = target: MTA1-B (residues 162–546) (human) (UniProt Q13330); assay: as above
[4] = target: T1, RBBP4 (residues 1–425), untagged (human, UniProt Q09028 1-425); assay: SEC-MALS; gel-filtrated co-expressed complexes at 1 mg/ml reapplied to Superdex S200; Optilab T-rEX and DAWN HELEOS detectors; details: both partners purified
T1 construct: also called RbAp48; source: HEK293F, co-transfected with MTA1 fragments, co-purified (FLAG resin through MTA1, TEV elution, Superdex S200)
T1 sequence (Q09028 whole entry, the tested form may be a part): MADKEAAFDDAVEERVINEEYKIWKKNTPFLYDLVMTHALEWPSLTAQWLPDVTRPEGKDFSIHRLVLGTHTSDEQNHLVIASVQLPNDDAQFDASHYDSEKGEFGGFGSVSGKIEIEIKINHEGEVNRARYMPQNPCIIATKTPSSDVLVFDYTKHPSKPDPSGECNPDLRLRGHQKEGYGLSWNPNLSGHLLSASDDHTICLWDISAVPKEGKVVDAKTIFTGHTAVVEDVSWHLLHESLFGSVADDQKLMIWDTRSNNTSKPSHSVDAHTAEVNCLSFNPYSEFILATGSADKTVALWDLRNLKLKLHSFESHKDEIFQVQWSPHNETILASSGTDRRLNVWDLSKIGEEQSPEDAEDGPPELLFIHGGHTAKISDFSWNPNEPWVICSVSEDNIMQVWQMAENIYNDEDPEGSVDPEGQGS

[5] = target: the molecule itself; assay: as above
[6] = target: T2, HDAC1 (residues 1–482), untagged (human, UniProt Q13547 1-482); assay: SAXS; purified co-expressed complexes, 1 to 5 mg/ml, 25°C, Diamond B21; ab initio envelopes; details: both partners purified
T2 construct: Histone deacetylase 1 (HDAC1), residues 1-482; source: HEK293F, co-transfected with MTA1 fragments, co-purified (FLAG resin through MTA1, TEV elution, Superdex S200)
T2 sequence (Q13547 whole entry, the tested form may be a part): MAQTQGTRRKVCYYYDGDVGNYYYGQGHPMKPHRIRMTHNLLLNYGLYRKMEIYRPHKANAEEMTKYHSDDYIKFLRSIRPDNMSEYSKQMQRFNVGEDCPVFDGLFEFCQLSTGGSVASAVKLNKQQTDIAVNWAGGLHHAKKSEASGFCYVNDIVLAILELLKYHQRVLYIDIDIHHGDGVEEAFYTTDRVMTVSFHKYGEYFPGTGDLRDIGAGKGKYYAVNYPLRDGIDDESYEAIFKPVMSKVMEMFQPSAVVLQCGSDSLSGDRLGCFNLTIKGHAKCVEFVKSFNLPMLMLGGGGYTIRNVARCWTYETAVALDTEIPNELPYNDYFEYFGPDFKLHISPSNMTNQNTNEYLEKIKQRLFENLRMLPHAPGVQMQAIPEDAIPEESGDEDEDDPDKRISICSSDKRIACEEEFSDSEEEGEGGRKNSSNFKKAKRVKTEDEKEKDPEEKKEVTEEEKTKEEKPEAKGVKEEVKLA

stoichiometry N (copies in the complex) [1]: 2
Molecule: MTA1-A (residues 162–354) (from UniProt Q13330 162-354) (domain or fragment)

ratio HDAC1:RBBP4/7 (gel densitometry) (RBBP4/7 per HDAC1) [2]: 1.5
ratio HDAC1:RBBP4/7 (gel densitometry) (RBBP4/7 per HDAC1) [3]: 1
Molecule: endogenous RBBP4/7 (from UniProt Q09028 1-425) (natural protein)

binding result [4]: binds
binding result [6]: binds
B1: MTA1-B (residues 162–546) (domain or fragment, human, UniProt Q13330 162-546, looked up)
chain: ADKGEIRVGNRYQADITDLLKEGEEDGRDQSRLETQVWEAHNPLTDKQIDQFLVVARSVGTFARALDCSSSVRQPSLHMSAAAASRDITLFHAMDTLHKNIYDISKAISALVPQGGPVLCRDEMEEWSASEANLFEEALEKYGKDFTDIQQDFLPWKSLTSIIEYYYMWKTTDRYVQQKRLKAAEAESKLKQVYIPNYNKPNPNQISVNNVKAGVVNGTGAPGQSPGAGRACESCYTTQSYQWYSWGPPNMQCRLCASCWTYWKKYGGLKMPTRLDGERPGPNRSNMSPHGLPARSSGSPKFAMKTRQAFYLHTTKLTRIARRLCREILRPWHAARHPYLPINSAAIKAECTARLPEASQSPLVLKQAVRKPLEAVLRYLETHPR
notes: Captured on FLAG resin by the tag, then released with TEV; Two copies in the dimeric MTA1-B:HDAC1:RBBP4 complex by MALS; not shown: His10, N-terminal, cleaved; Flag3, N-terminal, cleaved
stoichiometry N [5]: 2 copies in the complex
